The text below walks through data of publication doi:10.1101/2021.04.23.440992.

In the experiment the target is FUS-DDIT3 (Type II fusion), recombinant. Description: partitioning of a labelled client into condensates.
Regarding “ARID1A^PLD, recombinant prion-like domain of ARID1A (domain or fragment)”, the partition coefficient turned out to be 15. As for “ARID1B^PLD, recombinant prion-like domain of ARID1B (domain or fragment)”, the partition coefficient was found to be 3.8. “BRG1, recombinant, RED-tris-NTA-labeled (from UniProt P51532 1-1647) (natural protein)”: the partition coefficient stood at 27. Consider “BRG1^PLD, recombinant N-terminal prion-like domain of BRG1 (from UniProt P51532 1-340) (domain or fragment)”, for which the partition coefficient was 40.

On to “SS18^PLD, recombinant prion-like domain of SS18 (domain or fragment)”, for which the partition coefficient is 6.
